Biological target: GFP-actin (UniProt P60709)
Assay: dual color fluorescence cross-correlation spectroscopy

- relative cross-correlation amplitude ([Gc(0)-1]/[Gr(0)-1]), apical membrane: 0.33
- relative cross-correlation amplitude ([Gc(0)-1]/[Gr(0)-1]), subapical region: 0.4
Substance: DsRed-AQP2 (from UniProt P41181 1-271) (natural protein)
